Measured values taken from PMC5892705 (Science signaling, 2017).

What was measured:
[1] = biological target: T1, murine oxytocin receptor (mouse, UniProt P97926 1-388); assay: cell-based or functional assay
T1 sequence: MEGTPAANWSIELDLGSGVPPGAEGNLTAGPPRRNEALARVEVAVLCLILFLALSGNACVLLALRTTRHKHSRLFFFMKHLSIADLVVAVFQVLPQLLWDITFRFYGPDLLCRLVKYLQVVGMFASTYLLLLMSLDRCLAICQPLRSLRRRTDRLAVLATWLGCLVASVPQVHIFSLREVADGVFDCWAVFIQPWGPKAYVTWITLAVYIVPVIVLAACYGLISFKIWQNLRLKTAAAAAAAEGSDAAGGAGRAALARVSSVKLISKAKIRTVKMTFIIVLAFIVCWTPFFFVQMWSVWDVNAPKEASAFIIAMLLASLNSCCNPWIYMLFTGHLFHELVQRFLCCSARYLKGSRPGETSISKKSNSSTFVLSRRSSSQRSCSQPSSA

[2] = biological target: human vasopressin V1a receptor (human, UniProt P37288 1-418); assay: cell-based or functional assay
Chain of human vasopressin V1a receptor (P37288 whole entry): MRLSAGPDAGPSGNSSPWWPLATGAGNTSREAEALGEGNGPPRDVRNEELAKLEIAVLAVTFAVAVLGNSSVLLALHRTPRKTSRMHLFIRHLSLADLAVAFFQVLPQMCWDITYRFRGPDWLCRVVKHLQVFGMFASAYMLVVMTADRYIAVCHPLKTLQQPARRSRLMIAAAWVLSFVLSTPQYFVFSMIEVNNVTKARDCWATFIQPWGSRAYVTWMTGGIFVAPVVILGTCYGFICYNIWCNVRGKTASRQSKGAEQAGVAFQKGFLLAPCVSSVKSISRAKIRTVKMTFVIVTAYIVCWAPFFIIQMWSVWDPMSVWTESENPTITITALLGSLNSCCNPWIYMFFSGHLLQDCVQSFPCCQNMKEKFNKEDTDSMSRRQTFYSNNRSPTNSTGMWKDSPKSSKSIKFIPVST

[3] = biological target: T2, human oxytocin receptor (human, UniProt P30559 1-389); assay: cell-based or functional assay
T2 sequence: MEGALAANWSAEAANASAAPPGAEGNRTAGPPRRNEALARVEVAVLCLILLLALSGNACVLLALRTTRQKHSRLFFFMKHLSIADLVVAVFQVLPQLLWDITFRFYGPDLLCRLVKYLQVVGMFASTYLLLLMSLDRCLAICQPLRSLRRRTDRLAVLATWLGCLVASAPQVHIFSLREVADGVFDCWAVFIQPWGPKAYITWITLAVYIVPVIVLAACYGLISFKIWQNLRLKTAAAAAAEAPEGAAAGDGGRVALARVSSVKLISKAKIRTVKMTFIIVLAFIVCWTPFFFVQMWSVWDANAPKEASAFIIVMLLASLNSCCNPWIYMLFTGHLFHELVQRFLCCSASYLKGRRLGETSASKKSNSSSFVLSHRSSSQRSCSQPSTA

[4] = biological target: murine vasopressin V2 receptor (mouse, UniProt O88721 1-371); assay: radioligand binding
Chain of murine vasopressin V2 receptor (O88721 whole entry): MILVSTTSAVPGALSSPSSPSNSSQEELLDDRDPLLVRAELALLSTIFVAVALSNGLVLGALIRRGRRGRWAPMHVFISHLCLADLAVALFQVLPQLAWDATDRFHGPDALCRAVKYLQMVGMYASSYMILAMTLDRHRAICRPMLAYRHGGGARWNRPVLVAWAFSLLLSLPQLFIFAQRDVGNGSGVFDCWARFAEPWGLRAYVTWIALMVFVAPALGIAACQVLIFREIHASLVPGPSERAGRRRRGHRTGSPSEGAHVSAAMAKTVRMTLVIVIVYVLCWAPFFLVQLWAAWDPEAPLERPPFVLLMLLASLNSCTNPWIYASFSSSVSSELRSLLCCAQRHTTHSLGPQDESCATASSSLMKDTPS

B1: [Se-Se]-OT-OH (peptide)
chain: UYIQNUPLG
modifications: selenocysteine at positions 1 and 6, joined by a diselenide bond; C-terminal acid instead of the amide
- HTRF IP1 accumulation in transfected HEK293 cells, Emax [1]: 43%
- FLIPR Ca2+ mobilization, EC50 [2]: > 10000 nM
- HTRF IP1 accumulation in transfected COS-1 cells, EC50 [3]: 38 nM
- tissue bath, contraction amplitude of strips of pregnant human myometrium, EC50 [3]: 5.89 nM
- Ki1 (bi-phasic binding curve) [4]: 0.71 nM
